Assay results: publication PMC9512702

How the values were obtained:
[1] = biological target: mammalian expressed RBD (mRBD) of SARS-CoV-2 spike (SARS-CoV-2) (UniProt P0DTC2); assay: nanoDSF thermal shift
[2] = biological target: mammalian expressed RBD (mRBD) of SARS-CoV-2 spike (SARS-CoV-2) (UniProt P0DTC2); assay: SPR
[3] = biological target: mammalian expressed RBD (mRBD) of SARS-CoV-2 spike (SARS-CoV-2) (UniProt P0DTC2); assay: SEC-MALS

other [1]: 16 °C
Kd [2]: 0.042 nM
stoichiometry N [3]: 1 LCB1:RBD
Substance: LCB1 (designed binder)
